The DeepSol protein solubility set

Assay: soluble on expression in E. coli; label from the status in PepcDB or PDB records

Row | Sequence | soluble on expression in E. coli
1 | SADESDMRNELNDIQARADQLGDESLESTRRMLQLVEESKDAGIRTLVMLDEQGEQLERIEEGMDQINKDMKEAEKNLTDLGNLCGLCPCPCNKLKGGGQSWGNNQDGVVSSQPARVVDEREQMAISGGFIRRVTNDARENEMDENLEQVGSIIGNLRHMALDMGNEIDTQNRQIDRIMDMADSNKTRIDEANQRATKMLGSG | soluble
2 | PGGPEEQWQRAIHERGEAVCPTCNVVTRKTLVGLKKHMEVCQKLQDALKCQHCRKQFKSKAGLNYHTMAEHSAKPSDAEASEGGE | soluble
3 | MDDYMVLRMIGEGSFGRALLVQHESSNQMFAMKEIRLPKSFSNTQNSRKEAVLLAKMKHPNIVAFKESFEAEGHLYIVMEYCDGGDLMQKIKQQKGKLFPEDMILNWFTQMCLGVNHIHKKRVLHRDIKSKNIFLTQNGKVKLGDFGSARLLSNPMAFACTYVGTPYYVPPEIWENLPYNNKSDIWSLGCILYELCTLKHPFQANSWKNLILKVCQGCISPLPSHYSYELQFLVKQMFKRNPSHRPSATTLLSRGIVARLVQKCLPPEIIMEYGEEVLEEIKNSKHNTPRKKTNPSRIRIALGNEASTVQEEEQDRKGSHTDLESINENLVESALRRVNREEKGNKSVHLRKASSPNLHRRQWEKNVPNTALTALENASILTSSLTAEDDRGGSVIKYSKNTTRKQWLKETPDTLLNILKNADLSLAFQTYTIYRPGSEGFLKGPLSEETEASDSVDGGHDSVILDPERLEPGLDEEDTDFEEEDDNPDWVSELKKRAGWQGLCDR | soluble
4 | MKKLSFFLIATLSLGACSTATSPTGRHQVFSGVSQQQLNQLGEQAFVEIKAKEKISGNVRQNAYVRCVVDALVTELPLQWRHVKWETVLFLNEEPNAFALPGGKVGVNTGIFRAAKNQEQLAAVLGHEIGHVVSRHHEERITWQLGTQAGLGLLGVLAGTAYGDSAATAVNQIGGLTAQAAFLLPGSRTQEREADIVGQRLMAQAGFDPIQAVYLWKNMLAIAGQRPPQWLSTHPDPTNRIRQLEQQSAVLASVYAQARDAGRVPHCSPAALEHHHHHH | not soluble
5 | MMTQTLLIELLTEELPPKALNNLGNHFAASVAEGLEKAQLVDGAAEFTAYASPRRLAVQVKNVKAVQADQKIVKKGPAVANAMKDGAPTKALEGFARGAGAKIEDLTIVHDGKQDVYAYEYVQIGKPLGGLLEDIINQAVKKLPIPKVMRWGSSTFTFVRPVHGLVVLHGGDIVNVSVLGLQSGNKTLGHRFLSDGEITIENADSYAAQMREQGKVVASFAERKAAIQTVLEGQARRLNATAAADEALLDEVTALVEWPVVLEAGFEEHFLAVPQECLILTMQQNQKYFPLLDQNGKLMNRFLLVSNLQTEDPSHIIQGNERVLRARLSDAEFFYKQDQKATLESRLPKLTNVVYHNKIGSQAERIERLQSIAAHIAKALGADAAAAERAARLAKADLVTEMVGEFPELQGTMGKYYARLDGETEEITEAVEQHYQPRFAGDNLPEGKIAAAVALADKLETLVGIWGIGLIPTGDKDPYALRRAALGILRMLMQYGLDVNELIQTAFNSFPQGLLNEKTPSETADFMQARLAVLLQNDYPQDIVAAVLAKQPRRLDDLTAKLQAVAAFKQLPEAAALAAANKRVQNLLKKADAELGAVNESLLQQDEEKALFAAAQGLQPKIAAAVAEGNFQTALSELASVKPQVDAFFDGVMVMAEDAAVKQNRLNLLNRLAEQMNAVADIALLGE | not soluble
6 | MSQQPGVLPENMKRYMGRDAQRMNILAGRIIAETVRSTLGPKGMDKMLVDDLGDVVVTNDGVTILREMSVEHPAAKMLIEVAKTQEKEVGDGTTTAVVVAGELLRKAEELLDQNVHPTIVVKGYQAAAQKAQELLKTIACEVGAQDKEILTKIAMTSITGKGAEKAKEKLAEIIVEAVSAVVDDEGKVDKDLIKIEKKSGASIDDTELIKGVLVDKERVSAQMPKKVTDAKIALLNCAIEETASEMLKDMVAEIKASGANVLFCQKGIDDLAQHYLAKEGIVAARRVKKSDMEKLAKATGANVITNIKDLSAQDLGDAGLVEERKISGDSMIFVEECKHPKAVTMLIRGTTEHVIEEVARAVDDAVGVVGCTIEDGRIVSGGGSTEVELSMKLREYAEGISGREQLAVRAFADALEVIPRTLAENAGLDAIEILVKVRAAHASNGNKCAGLNVFTGAVEDMCENGVVEPLRVKTQAIQSAAESTEMLLRIDDVIAAEKLRGAPDMGDMGGMPGMGGMPGMM | soluble
7 | GSHMQPMQAMKIERGTILTQPGVFGVFTMFKLRPDWNKVPAMERKGAAEEVKKLIEKHKDNVLVDLYLTRGLETNSDFFFRINAYDLAKAQTFMREFRSTTIGKNADVFETLVGVTKPLNYISKDKSPGLNAGLSSATYSGPAPRYVIVIPVKKNAEWWNMSPEERLKEMEVHTTPTLAYLVNVKRKLYHSTGLDDTDFITYFETDDLTAFNNLMLSLAQVKENKFHVRWGSPTTLGTIHSPEDVIKALAD | soluble
8 | MGSDKIHHHHHHMQATMTDKNTRELLLDAATTLFAEQGIAATTMAEIAASVGVNPAMIHYYFKTRDSLLDTIIEERIGRIIDMIWEPVTGEEDDPLIMVRDLVNRIVNTCETMLWLPSLWIREIVNEGGALREKMLNNIPIDKMNKFSAKIAEGQKQGVINSGIDSRLLIGSIIGLTMLPLATAKLRDQIPTMKGLSSEDIVCHVTALLFTGLTNPSNSDDIKKQRT | not soluble
9 | MENDLKKLTKEIVGRLKNKSVKELLSYAIFNEEEEAKFYADLAEKVSRPSVKALFRRMSEESKVHELLLRKLFSKYFPGEEPVKVDVPPVEVVPFISKFESIEDYLEGLRYCMESELFAKRTYVLLSQVAENEGVRMVANELASIEQNHYEEIKAVYELVKTFRDREMLPESLKSGAYLITNESVGKYLILDLIDENKKLKLFVRENPEIFRRLIGENPNVEITWIAKVNAPNTISPTETHVLKKDIESFFEKVTKEGKKGVVFIQNVAYLVANLGFKETVDLLLHAKDLAVYYGGYLIITANPEVFEKTEWALLKLEFEVLF | not soluble
10 | MGSSHHHHHHSSGRENLYFQGEYDYTDFINYYDKFKVIVYNVLKKLPLNDEIRKPVIEYYLNCIDYNVKKGKHIRGKILVLISSLSSAYSNIKRDSIYLLGWVVEAIQALILIADDIMDSGKFRRGAPCWYIVHGQSNAINDIFFLKMLSLSLIFELSSVFGNDIVMKIQKIYNESIFFTVLGQHLDLSYFDLSKADKISERYFSMVEMKTSRYTFYMPVFFGLTLSEIQVSSAQLNLIEAILYKLGEFYQVHNDVSDYLFNDSNADDICRFKLTWPLQKSFEIADEEMKLKISENYGKNSSLVKDCYNLLKINEHYLEYQRNALDYLIKLVKDITDDSLQKVFIHLIHQISELITNSRSNADSNNSL | soluble
11 | MAHHHHHHMNSTTTISADPDGSSLCAASRISTPGTMSVLVPYKRRGQKSSMARGGASPQRRSPQPPYAGKSISTSASTLSSSVQPHGAGAASRGDQSRRGDAAPDGTLNAYSSHPAAPLDRPRDEEFDAVEQRARMALESIATRDEDLEPSMGDHIGVLQSYRTACEARAMYREAYLVQQVLRNLRLEEESRHVRGITEQQMEERRILEEAHRQEFREFHHSWNARIDAFEEEQLEAELALLERQNEELIRFQEEMRNFQPRLLRYSRSLLESRLKQQTLAKQRDYVGAQAQKAHAEAIEVEDIERFEAARMSLFERREYAARHRHQQELYALRTKVESRRLYLERYRKQELDVLLQRYINARRSMESQQNIVRNKTGTLLLKHACNMKTDSSGTAVLVESAGSGAFGTMVQRRQAYELRALQGSPDGASASVRDGSAM | not soluble
12 | TQKPSLYRVLILNDDYTPMEFVVYVLERFFNKSREDATRIMLHVHQNGVGVCGVYTYEVAETKVAQVIDSARRHQHPLQCTMEKD | soluble
13 | MADDPHVLAFLARVHQGRRDRVEDHLHEHFIRERNLHQRPQFPPLQLVPVQAEHEYEHPFPLVDVFKFSLQGDSVKTASSSWQGLQWKVKCSIYNLPGELLATRVSVDFFNLMDRVFKATVKYEMNEKFAAANEFAEVVIDSNHSTIVFPETGAFAPGRLVDGMLPTEIAVKIKLEHAEIVDQFSYNNQSWVMGTRWVRYGDECSVRMNFDVLKNLNPCHDKFFDDLREQVLSPKEARAFFDFASAIFNRSFMGLDLFHESVRNGLKFGFTTNWDSLNTVDSEFDFNSRTAFPGYQNVLYEQPSELTSISNRETAGMCQIFKLNLDPSDVTTRFQVASMNNVKSHTSQFTFYLENSPNGYLLIAGGCFQMESRQLVNLKLTLFDSGVSCRNIQTFRILHKEQSTIKVVIALLDDDKMEKMSRGKLLLNFQMHMNGTISNVVRNFEDQTKRIGDFAMPGLVTGYINCRDKKRIGVCKEHLANNSEHLNMLFFNTVFEDCGKNEITVNEDSDIVLDALDIIYHRSLAIFPAQINRVLDLAGYWLSATMHRFMEIAILHSTHISDSAKLELAAEHHFDIIKYVARHPRYASTYHLSLTDEEIMQVRIPADNEVDGGTGGRPRRVEDLMDLEEQQE | not soluble
14 | MGSDKIHHHHHHMYVLHICHSYYPPFLDCARQYAALFKDSPYKVVTVYLTGKPDPEVERGSASDEVVFLGYSSKQVKGLKLGAIAKIRQLVKSRNFAFCIAHRAKPTYVALLATGLPVVSVHHNYNDYGRFTRRILVNFYRKRILMLCVSNSVRDEMRQHLKHWPAEQIQTLYNRIDVDAVRQSLLPRQEARRLLELEDDTYVIANVGRLHRDKDQATLLRGFAQALPELPANTLLLILGKGPLEQELKALASELGIAGNVRFAGQVPEARRYFRAFDLFVLTSDHEPFGMVLLEAMAAELPIICSDSGGGAEVVNGYGDLFSLGNPHHLSSLLIARSRLPQAANSSADILHEKFSDAAARKHFFMLTFIKDLLFI | not soluble
15 | VMVFISSSLNSFRSEKRYSRSLTIAEFKCKLELVVGSPASCMELELYGADDKFYSKLDQEDALLGSYPVDDGCSIHVIDHSG | soluble
16 | MTIRSYKNLNLVRANIETESRQFIENKNYSIQSIGPMPGSRAGLRVVFTRPGVNLATVDIFYNGDGSTTIQYLTGANRSLGQELADHLFETINPAEFEQVNMVLQGFVETSVLPVLELSADESHIEFREHSRNAHTVVWKIISTSYQDELTVSLHITTGKLQIQGRPLSCYRVFTFNLAALLDLQGLEKVLIRQEDGKANIVQQEVARTYLQTVMADAYPHLHVTAEKLLVSGLCVKLAAPDLPDYCMLLYPELRTIEGVLKSKMSGLGMPVQQPAGFGTYFDKPAAHYILKPQFAATLRPEQINIISTAYTFFNVERHSLFHMETVVDASRMISDMARLMGKATRAWGIIKDLYIV | soluble
17 | MESKREYDYILPGRAESYWLATVPEPSYPALKGDIRVDIAIIGGGIAGLTTAYLLKEAGFSSIAVIEAGRILRGVTGHTTAKVTSQHSLIYDRLLSKFGKRQAQQYAESNQAALEKIASIVASKKIDCDFVRKPSYVYAGSEDSTNKIQNEAQTARNLGLPASFEENLPLPFKTYGAVRFNNQAQFHPVKYLNALAEQIHEGGCHIFENTRALKIEGEEPVTITTDKGTIRAHKVVQAMHYPIHDRPGLFFQRLYQSRSYVLGVRIRDPFPDGMFINAEEPVRSLRSQSTDKGELILVSGEGHRTGEEEHEISRYQNLEKWVRSVYSVDSIDYRWSSQDAISIDHIPYIGRQTSGNDSIFLATGFKKWGMTMGTVAAMIIKDMIREKYNPWEEVYDPSRFKPVESAKTLLSQAVEATKGFVGDRILPTHKEASQIGPEEGAIVKIEGERVAAYRDRNGVLYTLNPSCRHLGCIVSWNDAEKTWDCPCHGSRYKATGEVIHSPAVYGLSEKKIRGQDKNNIHTLEHHHHHH | soluble
